Data published in patent US20250122266A1, “SMART SINGLE-DOMAIN INTRABODIES WITH PRECISION SWITCHES FOR BIOMEDICAL APPLICATIONS” (THE TEXAS A&M UNIVERSITY SYSTEM, priority 2020, published 2025).
Read-outs that look alike come from different tables or passages of the source. One block for each substance: values may come before it.

Experiments:
[1] = biological target: NE-tethered mCh-lamin A (UniProt P02545); assay: NE/NP ratio of GFP signal in HeLa cells, before and after light
[2] = biological target: Recombinant SARS-COV-2 Spike RBD (SARS-COV-2) (UniProt P0DTC2); assay: ELISA on immobilised RBD; read as the value without caffeine
[3] = biological target: Recombinant SARS-COV-2 Spike RBD (SARS-COV-2) (UniProt P0DTC2)
[4] = biological target: YFP-ORAI1 (UniProt Q96D31); assay: cell-based or functional assay
Sequence of YFP-ORAI1 (Q96D31 whole entry): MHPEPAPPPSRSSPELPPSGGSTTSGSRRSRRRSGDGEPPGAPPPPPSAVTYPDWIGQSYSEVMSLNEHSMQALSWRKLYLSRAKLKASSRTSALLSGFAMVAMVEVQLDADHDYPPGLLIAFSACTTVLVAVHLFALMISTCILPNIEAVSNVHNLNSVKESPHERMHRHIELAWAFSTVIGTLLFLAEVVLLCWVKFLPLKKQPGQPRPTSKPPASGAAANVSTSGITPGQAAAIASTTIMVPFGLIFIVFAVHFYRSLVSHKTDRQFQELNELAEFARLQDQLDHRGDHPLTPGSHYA

Sequence of mCherry-COSMO-STIM1ct (Q13586 other isoform, or with tags, fused parts or gaps): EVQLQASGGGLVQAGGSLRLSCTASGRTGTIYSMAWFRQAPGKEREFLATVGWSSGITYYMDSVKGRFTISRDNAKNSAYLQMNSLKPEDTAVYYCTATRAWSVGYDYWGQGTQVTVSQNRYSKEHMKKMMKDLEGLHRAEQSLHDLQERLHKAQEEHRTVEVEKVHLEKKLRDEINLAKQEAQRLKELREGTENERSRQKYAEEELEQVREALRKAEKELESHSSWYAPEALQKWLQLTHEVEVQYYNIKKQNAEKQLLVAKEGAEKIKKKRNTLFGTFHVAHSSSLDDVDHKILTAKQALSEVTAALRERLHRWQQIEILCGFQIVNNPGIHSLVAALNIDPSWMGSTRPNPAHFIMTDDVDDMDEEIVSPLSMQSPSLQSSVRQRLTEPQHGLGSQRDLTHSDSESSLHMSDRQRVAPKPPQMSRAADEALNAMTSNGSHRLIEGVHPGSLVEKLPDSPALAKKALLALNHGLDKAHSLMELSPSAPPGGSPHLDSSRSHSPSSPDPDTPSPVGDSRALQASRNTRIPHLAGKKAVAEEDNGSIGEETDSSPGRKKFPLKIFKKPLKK

- increase in the NE/NP ratio after photostimulation [1]: 10%
Substance: GFP-sunbody variant S0 (LOV2 fused to the N-terminus of LaM8) (VHH)

Substance: MBP-COSMO-VHH72
- apparent binding affinity [2]: 29 nM
- apparent binding affinity [3]: 18 nM

Substance: mCherry-COSMO-STIM1ct (from UniProt Q13586 233-685)
- calcium influx (GCaMP6s) after 1 µM caffeine, activation half-life [4]: 1.63 min
